The results in this text go back to publication PMC11811891, “Structural insights into human TFIIIC promoter recognition” (Science Advances, 2023).

Data set [1] deals with TFIIIC220;TFIIIC110;TFIIIC102;TFIIIC90;TFIIIC63;TFIIIC35 (human;human;human;human;human;human, UniProt Q12789;Q8WUA4;Q9Y5Q9;Q9UKN8;Q9Y5Q8;Q969F1 1-2109;1-911;1-886;1-822;1-519;1-213, |||||). The data set is described as follows: filter binding; 150 mM KCl, 2 mM MgCl2, 4 C; Filter binding: 20 mM Tris-HCl pH 7.5, 150 mM KCl, 2 mM MgCl2, 5 mM DTT, 30 min 4 C, ~0.5 nM DNA; EMSA: 20 mM Hepes pH 8, 225 mM KCl, 2 mM MgCl2, 5 mM DTT, RT 10 min, 0.8% agarose gel at 4 C. To be noted: protein: recombinant;recombinant;recombinant;recombinant;recombinant;recombinant; tags: C-terminal 3xFLAG;N-terminal TEV-cleavable His;;;N-terminal TEV-cleavable His;; copies: 1;1;1;1;1;1; label: 5'-32P; blunt. (In EMSA bound probe runs differently from free probe, usually more slowly.)

Data set [2] deals with T1, human TFIIIC subunit TFIIIC102 (human, UniProt Q9Y5Q9 1-886).
T1 construct: TFIIIC102, subunit of human TFIIIC; No truncation is described; also called τ131 in yeast (homolog); GTF3C3; source: Sf21 insect cells, baculovirus, coexpressed with the other five hTFIIIC subunits; purified (anti-FLAG M2 agarose, Capto HiRes Q)
T1 sequence: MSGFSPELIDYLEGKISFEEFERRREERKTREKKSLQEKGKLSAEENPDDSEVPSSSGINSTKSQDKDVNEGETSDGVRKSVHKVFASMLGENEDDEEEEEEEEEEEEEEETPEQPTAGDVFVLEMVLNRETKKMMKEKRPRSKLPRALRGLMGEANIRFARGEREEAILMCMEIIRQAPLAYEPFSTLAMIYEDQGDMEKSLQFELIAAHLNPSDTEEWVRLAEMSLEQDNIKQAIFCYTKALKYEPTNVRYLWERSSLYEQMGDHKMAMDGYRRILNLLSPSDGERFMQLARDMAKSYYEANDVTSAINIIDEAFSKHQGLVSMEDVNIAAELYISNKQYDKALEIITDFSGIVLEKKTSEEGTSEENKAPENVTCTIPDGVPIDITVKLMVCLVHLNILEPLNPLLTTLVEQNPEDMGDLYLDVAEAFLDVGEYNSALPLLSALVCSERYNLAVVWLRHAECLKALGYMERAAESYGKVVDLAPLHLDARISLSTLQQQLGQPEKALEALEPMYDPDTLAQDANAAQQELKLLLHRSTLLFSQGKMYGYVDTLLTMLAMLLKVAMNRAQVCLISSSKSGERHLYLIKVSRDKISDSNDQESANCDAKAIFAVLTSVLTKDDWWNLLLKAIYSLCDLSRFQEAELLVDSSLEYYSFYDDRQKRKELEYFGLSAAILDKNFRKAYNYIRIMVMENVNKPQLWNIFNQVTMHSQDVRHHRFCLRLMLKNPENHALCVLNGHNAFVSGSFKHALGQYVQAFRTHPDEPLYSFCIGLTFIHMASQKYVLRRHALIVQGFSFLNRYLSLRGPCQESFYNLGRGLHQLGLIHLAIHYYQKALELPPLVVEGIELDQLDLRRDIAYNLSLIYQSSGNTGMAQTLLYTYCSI
The data set can be described thus: cryo-EM structure; purified hTFIIIC (3.17 μM) alone or with human TRR-TCT3-2 tRNA gene DNA at a 1:1 molar ratio; EM buffer 20 mM Hepes pH 8, 225 mM KCl, 2 mM MgCl2, 5 mM DTT; 0.1% octyl-β-glucoside; separate reconstructions of τA and of dimeric τB. To be noted: both partners purified.

Data set [3] concerns the target T2, human TFIIIC subunit TFIIIC220 (human, UniProt Q12789 1-2109).
T2 construct: TFIIIC220, largest subunit of human TFIIIC; 2109 amino acids as printed; No truncation is described; the expected mass of 624 kDa is that of the intact complex; also called τ138 in yeast (homolog); GTF3C1; source: Sf21 insect cells, baculovirus, coexpressed with the other five hTFIIIC subunits; purified (anti-FLAG M2 agarose, Capto HiRes Q); not shown: 3x FLAG, C-terminal, kept
The data set is described as above. Conditions: both partners purified.

Broadly, the Kd is the free concentration of one partner at which half of the binding sites on the other are occupied at equilibrium, for simple one-to-one binding.

T2 sequence (Q12789 whole entry, the tested form may be a part): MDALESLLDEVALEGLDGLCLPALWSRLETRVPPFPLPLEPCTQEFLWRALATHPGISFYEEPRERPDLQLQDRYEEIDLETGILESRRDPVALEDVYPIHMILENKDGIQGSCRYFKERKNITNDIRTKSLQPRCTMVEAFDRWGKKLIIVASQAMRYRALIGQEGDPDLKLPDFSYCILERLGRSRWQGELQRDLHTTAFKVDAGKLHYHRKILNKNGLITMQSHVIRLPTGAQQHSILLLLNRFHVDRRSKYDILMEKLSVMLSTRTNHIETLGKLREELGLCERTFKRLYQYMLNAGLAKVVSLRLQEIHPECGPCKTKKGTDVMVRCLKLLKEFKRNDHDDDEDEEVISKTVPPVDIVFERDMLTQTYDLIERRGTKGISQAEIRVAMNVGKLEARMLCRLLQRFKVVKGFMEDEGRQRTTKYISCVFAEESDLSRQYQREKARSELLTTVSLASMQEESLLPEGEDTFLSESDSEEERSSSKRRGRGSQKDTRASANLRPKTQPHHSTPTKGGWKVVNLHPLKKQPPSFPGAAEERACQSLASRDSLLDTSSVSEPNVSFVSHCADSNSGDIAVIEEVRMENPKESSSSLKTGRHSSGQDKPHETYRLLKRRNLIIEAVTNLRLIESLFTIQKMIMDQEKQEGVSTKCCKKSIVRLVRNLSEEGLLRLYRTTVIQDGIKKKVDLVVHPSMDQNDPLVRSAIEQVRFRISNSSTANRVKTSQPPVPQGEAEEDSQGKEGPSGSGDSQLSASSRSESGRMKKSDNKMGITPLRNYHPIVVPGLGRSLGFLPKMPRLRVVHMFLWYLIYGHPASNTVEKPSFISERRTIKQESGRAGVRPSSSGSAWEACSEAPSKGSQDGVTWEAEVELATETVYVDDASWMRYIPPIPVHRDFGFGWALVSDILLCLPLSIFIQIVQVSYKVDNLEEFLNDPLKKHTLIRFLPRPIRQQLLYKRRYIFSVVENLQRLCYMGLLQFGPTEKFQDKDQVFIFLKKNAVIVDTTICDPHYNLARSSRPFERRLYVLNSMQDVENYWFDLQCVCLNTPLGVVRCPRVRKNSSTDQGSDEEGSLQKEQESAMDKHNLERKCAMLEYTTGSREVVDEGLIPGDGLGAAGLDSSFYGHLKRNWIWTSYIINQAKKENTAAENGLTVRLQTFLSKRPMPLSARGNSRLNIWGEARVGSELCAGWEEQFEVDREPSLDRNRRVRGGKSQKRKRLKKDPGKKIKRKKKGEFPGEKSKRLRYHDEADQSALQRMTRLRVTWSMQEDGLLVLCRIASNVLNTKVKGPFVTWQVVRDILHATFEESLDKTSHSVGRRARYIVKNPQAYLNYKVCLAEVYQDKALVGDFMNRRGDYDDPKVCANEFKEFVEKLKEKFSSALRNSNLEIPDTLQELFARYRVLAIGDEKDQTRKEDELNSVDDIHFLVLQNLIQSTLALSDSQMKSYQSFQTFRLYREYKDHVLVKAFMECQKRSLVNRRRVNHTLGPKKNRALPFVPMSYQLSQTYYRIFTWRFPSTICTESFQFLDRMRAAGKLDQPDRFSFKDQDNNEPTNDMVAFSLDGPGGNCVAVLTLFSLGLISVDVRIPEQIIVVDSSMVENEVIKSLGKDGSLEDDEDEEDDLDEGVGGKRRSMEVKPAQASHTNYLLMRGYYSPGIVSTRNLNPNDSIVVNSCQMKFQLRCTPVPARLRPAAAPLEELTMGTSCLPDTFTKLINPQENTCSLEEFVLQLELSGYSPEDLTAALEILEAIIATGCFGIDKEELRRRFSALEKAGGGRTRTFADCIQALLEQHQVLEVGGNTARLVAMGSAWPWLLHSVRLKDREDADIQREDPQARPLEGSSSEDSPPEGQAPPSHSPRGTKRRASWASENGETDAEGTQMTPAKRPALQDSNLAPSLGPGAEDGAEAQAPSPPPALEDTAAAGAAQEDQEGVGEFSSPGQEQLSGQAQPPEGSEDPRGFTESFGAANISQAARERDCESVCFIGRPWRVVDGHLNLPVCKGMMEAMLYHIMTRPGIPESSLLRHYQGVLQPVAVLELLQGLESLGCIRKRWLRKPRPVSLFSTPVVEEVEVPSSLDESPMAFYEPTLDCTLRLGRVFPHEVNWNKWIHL
TFIIIC220;TFIIIC110;TFIIIC102;TFIIIC90;TFIIIC63;TFIIIC35, sequence (Q12789 whole entry, chain 1 of 3): as the sequence (Q12789 whole entry, the tested form may be a part) above
TFIIIC220;TFIIIC110;TFIIIC102;TFIIIC90;TFIIIC63;TFIIIC35, sequence (Q8WUA4 whole entry, chain 2 of 3): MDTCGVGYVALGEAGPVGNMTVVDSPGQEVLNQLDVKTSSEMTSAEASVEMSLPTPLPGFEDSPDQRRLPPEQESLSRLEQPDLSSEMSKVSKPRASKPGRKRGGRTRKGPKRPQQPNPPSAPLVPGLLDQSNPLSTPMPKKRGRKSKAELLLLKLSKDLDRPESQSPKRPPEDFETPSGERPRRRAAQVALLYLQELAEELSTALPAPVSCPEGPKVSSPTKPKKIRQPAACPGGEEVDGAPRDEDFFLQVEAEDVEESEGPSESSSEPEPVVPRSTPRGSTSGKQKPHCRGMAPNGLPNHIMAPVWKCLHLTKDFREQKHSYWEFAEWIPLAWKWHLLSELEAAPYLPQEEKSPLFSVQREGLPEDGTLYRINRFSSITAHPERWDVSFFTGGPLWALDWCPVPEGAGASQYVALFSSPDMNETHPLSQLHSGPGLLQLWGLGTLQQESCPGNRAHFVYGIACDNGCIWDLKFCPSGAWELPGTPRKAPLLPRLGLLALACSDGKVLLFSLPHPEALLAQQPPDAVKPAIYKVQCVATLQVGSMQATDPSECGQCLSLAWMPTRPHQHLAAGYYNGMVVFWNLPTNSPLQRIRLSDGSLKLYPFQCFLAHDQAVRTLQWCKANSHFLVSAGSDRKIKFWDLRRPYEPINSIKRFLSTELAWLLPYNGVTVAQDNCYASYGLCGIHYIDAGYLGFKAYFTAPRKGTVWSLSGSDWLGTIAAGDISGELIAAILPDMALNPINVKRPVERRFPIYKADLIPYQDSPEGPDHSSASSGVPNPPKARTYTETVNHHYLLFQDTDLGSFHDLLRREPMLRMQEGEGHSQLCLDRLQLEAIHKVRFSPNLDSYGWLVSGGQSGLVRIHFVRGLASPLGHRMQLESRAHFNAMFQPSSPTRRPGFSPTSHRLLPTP
TFIIIC220;TFIIIC110;TFIIIC102;TFIIIC90;TFIIIC63;TFIIIC35, sequence (Q9UKN8 whole entry, chain 4 of 3): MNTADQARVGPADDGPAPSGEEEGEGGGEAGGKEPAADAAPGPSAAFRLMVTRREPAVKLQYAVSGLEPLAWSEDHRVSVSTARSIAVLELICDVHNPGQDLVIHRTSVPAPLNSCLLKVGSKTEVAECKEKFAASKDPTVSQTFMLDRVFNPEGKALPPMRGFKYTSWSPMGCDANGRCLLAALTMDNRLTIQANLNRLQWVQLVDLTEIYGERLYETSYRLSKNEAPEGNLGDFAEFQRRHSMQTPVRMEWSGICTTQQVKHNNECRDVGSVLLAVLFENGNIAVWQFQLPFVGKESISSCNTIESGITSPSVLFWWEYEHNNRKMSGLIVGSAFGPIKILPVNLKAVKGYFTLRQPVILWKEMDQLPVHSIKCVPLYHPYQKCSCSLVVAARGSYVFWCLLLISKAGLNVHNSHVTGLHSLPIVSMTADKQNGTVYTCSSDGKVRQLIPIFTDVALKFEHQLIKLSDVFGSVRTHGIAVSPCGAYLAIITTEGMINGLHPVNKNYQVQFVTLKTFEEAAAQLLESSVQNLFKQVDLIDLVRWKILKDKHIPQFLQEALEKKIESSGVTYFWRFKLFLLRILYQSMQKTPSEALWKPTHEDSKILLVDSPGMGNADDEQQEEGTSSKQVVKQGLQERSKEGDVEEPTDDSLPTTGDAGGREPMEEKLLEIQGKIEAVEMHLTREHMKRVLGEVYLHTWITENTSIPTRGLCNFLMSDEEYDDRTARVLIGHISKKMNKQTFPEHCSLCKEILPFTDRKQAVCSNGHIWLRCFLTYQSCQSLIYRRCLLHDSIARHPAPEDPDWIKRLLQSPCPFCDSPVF

B1: TRR-TCT3-2 tRNA gene, 32P-labeled (dsDNA)
DNA 1: ACGTGTCTGGCTCTGTGGCGCAATGGATAGCGCATTGGACTTCTAGATAGTTAGAGAAATTCAAAGGTTGTGGGTTCGAGTCCCACAGAGTCGCTTTT
DNA 2: AAAAGCGACTCTGTGGGACTCGAACCCACAACCTTTGAATTTCTCTAACTATCTAGAAGTCCAATGCGCTATCCATTGCGCCACAGAGCCAGACACGT
Turning to B1, in data set [1], the equilibrium dissociation constant (Kd) was found to be 40 nM.

B2: TFIIIC35-TFIIIC63 heterodimer (complex, human)
chain 1: MAAAADERSPEDGEDEEEEEQLVLVELSGIIDSDFLSKCENKCKVLGIDTERPILQVDSCVFAGEYEDTLGTCVIFEENVEHADTEGNNKTVLKYKCHTMKKLSMTRTLLTEKKEGEENIGGVEWLQIKDNDFSYRPNMICNFLHENEDEEVVASAPDKSLELEEEEIQMNDSSNLSCEQEKPMHLEIEDSGPLIDIPSETEGSVFMETQMLP
chain 2: MAAEAADLGLGAAVPVELRRERRMVCVEYPGVVRDVAKMLPTLGGEEGVSRIYADPTKRLELYFRPKDPYCHPVCANRFSTSSLLLRIRKRTRRQKGVLGTEAHSEVTFDMEILGIISTIYKFQGMSDFQYLAVHTEAGGKHTSMYDKVLMLRPEKEAFFHQELPLYIPPPIFSRLDAPVDYFYRPETQHREGYNNPPISGENLIGLSRARRPHNAIFVNFEDEEVPKQPLEAAAQTWRRVCTNPVDRKVEEELRKLFDIRPIWSRNAVKANISVHPDKLKVLLPFIAYYMITGPWRSLWIRFGYDPRKNPDAKIYQVLDFRIRCGMKHGYAPSDLPVKAKRSTYNYSLPITVKKTSSQLVTMHDLKQGLGPSGTSGARKPASSKYKLKDSVYIFREGALPPYRQMFYQLCDLNVEELQKIIHRNDGAENSCTERDGWCLPKTSDELRDTMSLMIRQTIRSKRPALFSSSAKADGGKEQLTYESGEDEEDEEEEEEEEEDFKPSDGSENEMETEILDYV
notes: TFIIIC35, subunit of human TFIIIC; as the chain of m6; TFIIIC63, subunit of human TFIIIC; as the chain of m5; source: Sf21 insect cells, baculovirus, coexpressed within the six-subunit hTFIIIC complex; purified (anti-FLAG M2 agarose, Capto HiRes Q)
Take B2: the binding result in data set [2] and in data set [3] was “binds” throughout.
